Experimental data taken from article PMC10397247.

Key:
4H2948-AA = target: T1, 4H2948-AA; assay: two-hybrid library CCmax;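 note: natural log of median RNA to DNA barcode read ratio; higher means stronger binding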
T1 chain: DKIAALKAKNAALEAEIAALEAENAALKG

4H2991-AA = target: T2, 4H2991-AA; assay: two-hybrid library CCmax; details: mean of both orientations;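 note: natural log of median RNA to DNA barcode read ratio; higher means stronger binding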
T2 chain: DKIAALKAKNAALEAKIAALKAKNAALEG

4H3029-AA = target: T3, 4H3029-AA; assay: two-hybrid library CCmax; details: mean of both orientations;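 note: natural log of median RNA to DNA barcode read ratio; higher means stronger binding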
T3 chain: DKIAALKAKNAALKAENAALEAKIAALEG

4H3066-AA = target: T4, 4H3066-AA; assay: two-hybrid library CCmax; details: mean of both orientations;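 note: natural log of median RNA to DNA barcode read ratio; higher means stronger binding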
T4 chain: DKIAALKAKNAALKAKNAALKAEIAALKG

4H3102-AA = target: T5, 4H3102-AA; assay: two-hybrid library CCmax; details: mean of both orientations;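 note: natural log of median RNA to DNA barcode read ratio; higher means stronger binding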
T5 chain: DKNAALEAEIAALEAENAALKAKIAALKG

4H3121-AA = target: T6, 4H3121-AA; assay: two-hybrid library CCmax; details: mean of both orientations;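 note: natural log of median RNA to DNA barcode read ratio; higher means stronger binding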
T6 chain: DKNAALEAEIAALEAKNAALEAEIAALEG

4H3417-AA = target: T7, 4H3417-AA; assay: two-hybrid library CCmax; details: mean of both orientations
T7 chain: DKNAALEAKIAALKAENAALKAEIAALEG

4H3446-AA = target: T8, 4H3446-AA; assay: two-hybrid library CCmax; details: mean of both orientations
T8 chain: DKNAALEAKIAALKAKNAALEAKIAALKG

4H3591-AA = target: T9, 4H3591-AA; assay: two-hybrid library CCmax; details: mean of both orientations
T9 chain: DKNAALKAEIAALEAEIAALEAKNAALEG

4H3628-AA = target: T10, 4H3628-AA; assay: two-hybrid library CCmax; details: mean of both orientations
T10 chain: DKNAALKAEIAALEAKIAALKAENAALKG

4H3666-AA = target: T11, 4H3666-AA; assay: two-hybrid library CCmax; details: mean of both orientations
T11 chain: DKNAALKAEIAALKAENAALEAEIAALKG

4H3709-AA = target: T12, 4H3709-AA; assay: two-hybrid library CCmax; details: mean of both orientations
T12 chain: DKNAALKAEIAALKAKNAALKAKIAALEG

4H391-AA = target: T13, 4H391-AA; assay: two-hybrid library CCmax
T13 chain: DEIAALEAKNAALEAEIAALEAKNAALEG

4H3920-AA = target: T14, 4H3920-AA; assay: two-hybrid library CCmax; details: mean of both orientations
T14 chain: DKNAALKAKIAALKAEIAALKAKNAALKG

4H3939-AA = target: T15, 4H3939-AA; assay: two-hybrid library CCmax; details: mean of both orientations
T15 chain: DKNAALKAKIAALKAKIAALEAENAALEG

4H428-AA = target: T16, 4H428-AA; assay: two-hybrid library CCmax; details: mean of both orientations
T16 chain: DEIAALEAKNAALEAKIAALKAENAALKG

4H478-AA = target: T17, 4H478-AA; assay: two-hybrid library CCmax; details: mean of both orientations
T17 chain: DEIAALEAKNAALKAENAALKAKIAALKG

4H497-AA = target: T18, 4H497-AA; assay: two-hybrid library CCmax; details: mean of both orientations
T18 chain: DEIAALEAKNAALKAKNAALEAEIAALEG

4H656-AA = target: T19, 4H656-AA; assay: two-hybrid library CCmax; details: mean of both orientations
T19 chain: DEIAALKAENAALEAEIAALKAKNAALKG

4H675-AA = target: T20, 4H675-AA; assay: two-hybrid library CCmax; details: mean of both orientations
T20 chain: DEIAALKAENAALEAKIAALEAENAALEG

4H971-AA = target: T21, 4H971-AA; assay: two-hybrid library CCmax; details: mean of both orientations
T21 chain: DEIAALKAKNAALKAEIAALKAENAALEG

4H3638-bA = target: T22, 4H3638-bA; assay: two-hybrid library CCNG1
T22 chain: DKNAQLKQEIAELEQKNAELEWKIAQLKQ

4H3817-bA = target: T23, 4H3817-bA; assay: two-hybrid library CCNG1
T23 chain: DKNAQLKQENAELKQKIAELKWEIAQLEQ

4H3974-bA = target: T24, 4H3974-bA; assay: two-hybrid library CCNG1
T24 chain: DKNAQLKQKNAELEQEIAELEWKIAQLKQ

4H570-bA = target: T25, 4H570-bA; assay: two-hybrid library CCNG1
T25 chain: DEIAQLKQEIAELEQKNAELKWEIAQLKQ

4H584-bA = target: T26, 4H584-bA; assay: two-hybrid library CCNG1
T26 chain: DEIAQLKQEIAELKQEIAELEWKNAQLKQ

4H619-bA = target: T27, 4H619-bA; assay: two-hybrid library CCNG1
T27 chain: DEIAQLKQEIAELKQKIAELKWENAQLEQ

4H850-bA = target: T28, 4H850-bA; assay: two-hybrid library CCNG1
T28 chain: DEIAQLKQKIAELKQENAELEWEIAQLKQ

4H883-bN = target: T29, 4H883-bN; assay: two-hybrid library CCNG1
T29 chain: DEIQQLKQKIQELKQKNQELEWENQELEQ

4H906-bA = target: T30, 4H906-bA; assay: two-hybrid library CCNG1
T30 chain: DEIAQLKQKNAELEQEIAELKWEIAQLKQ

4H918-bH = target: T31, 4H918-bH; assay: two-hybrid library CCNG1
T31 chain: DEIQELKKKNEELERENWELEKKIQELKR

4H3843-bA = target: T32, 4H3843-bA; assay: two-hybrid library CCNG1
T32 chain: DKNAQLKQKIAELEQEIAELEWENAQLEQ

4H4001-bA = target: T33, 4H4001-bA; assay: two-hybrid library CCNG1
T33 chain: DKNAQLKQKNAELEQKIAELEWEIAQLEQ

4H462-bA = target: T34, 4H462-bA; assay: two-hybrid library CCNG1
T34 chain: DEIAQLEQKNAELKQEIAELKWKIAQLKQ

4H568-bA = target: T35, 4H568-bA; assay: two-hybrid library CCNG1
T35 chain: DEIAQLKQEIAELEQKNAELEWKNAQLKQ

4H607-bA = target: T36, 4H607-bA; assay: two-hybrid library CCNG1
T36 chain: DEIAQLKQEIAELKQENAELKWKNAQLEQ

4H687-bA = target: T37, 4H687-bA; assay: two-hybrid library CCNG1
T37 chain: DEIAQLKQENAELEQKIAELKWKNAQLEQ

4H72-bA = target: T38, 4H72-bA; assay: two-hybrid library CCNG1
T38 chain: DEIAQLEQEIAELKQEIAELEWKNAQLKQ

4H797-bA = target: T39, 4H797-bA; assay: two-hybrid library CCNG1
T39 chain: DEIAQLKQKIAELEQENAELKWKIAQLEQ

4H883-bA = target: T40, 4H883-bA; assay: two-hybrid library CCNG1
T40 chain: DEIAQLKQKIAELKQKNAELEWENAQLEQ

4H918-bA = target: T41, 4H918-bA; assay: two-hybrid library CCNG1
T41 chain: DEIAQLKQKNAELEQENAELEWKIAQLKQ

4H953-bA = target: T42, 4H953-bA; assay: two-hybrid library CCNG1
T42 chain: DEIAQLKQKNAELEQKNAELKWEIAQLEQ

4H967-bA = target: T43, 4H967-bA; assay: two-hybrid library CCNG1
T43 chain: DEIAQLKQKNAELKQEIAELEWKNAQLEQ

4H3782-bA = target: T44, 4H3782-bA; assay: two-hybrid library CCNG1
T44 chain: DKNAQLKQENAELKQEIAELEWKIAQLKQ

4H3855-bA = target: T45, 4H3855-bA; assay: two-hybrid library CCNG1
T45 chain: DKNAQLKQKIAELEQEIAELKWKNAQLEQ

4H3855-bH = target: T46, 4H3855-bH; assay: two-hybrid library CCNG1
T46 chain: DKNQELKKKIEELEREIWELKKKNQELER

4H454-bA = target: T47, 4H454-bA; assay: two-hybrid library CCNG1
T47 chain: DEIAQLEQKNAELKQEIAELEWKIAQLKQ

4H462-bN = target: T48, 4H462-bN; assay: two-hybrid library CCNG1
T48 chain: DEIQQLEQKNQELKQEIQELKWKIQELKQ

4H687-bN = target: T49, 4H687-bN; assay: two-hybrid library CCNG1
T49 chain: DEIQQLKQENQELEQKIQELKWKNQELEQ

4H717-bA = target: T50, 4H717-bA; assay: two-hybrid library CCNG1
T50 chain: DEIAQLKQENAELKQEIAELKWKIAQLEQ

4H754-bA = target: T51, 4H754-bA; assay: two-hybrid library CCNG1
T51 chain: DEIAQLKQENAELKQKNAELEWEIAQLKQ

4H908-bA = target: T52, 4H908-bA; assay: two-hybrid library CCNG1
T52 chain: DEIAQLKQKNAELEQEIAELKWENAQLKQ

4H883-AA = target: T53, 4H883-AA; assay: two-hybrid library CCmax
T53 chain: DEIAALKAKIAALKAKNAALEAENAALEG

4H918-AA = target: T54, 4H918-AA; assay: two-hybrid library CCmax; details: mean of both orientations
T54 chain: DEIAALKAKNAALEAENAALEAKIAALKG

4H953-AA = target: T55, 4H953-AA; assay: two-hybrid library CCmax; details: mean of both orientations
T55 chain: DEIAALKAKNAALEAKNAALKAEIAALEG

4H967-AA = target: T56, 4H967-AA; assay: two-hybrid library CCmax; details: mean of both orientations
T56 chain: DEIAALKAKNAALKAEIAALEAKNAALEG

4H376-AA = target: T57, 4H376-AA; assay: two-hybrid library CCmax
T57 chain: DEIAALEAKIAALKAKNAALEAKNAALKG

4H406-AA = target: T58, 4H406-AA; assay: two-hybrid library CCmax; details: mean of both orientations
T58 chain: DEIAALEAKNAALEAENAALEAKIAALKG

4H688-AA = target: T59, 4H688-AA; assay: two-hybrid library CCmax; details: mean of both orientations
T59 chain: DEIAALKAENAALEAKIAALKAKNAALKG

4H963-AA = target: T60, 4H963-AA; assay: two-hybrid library CCmax; details: mean of both orientations
T60 chain: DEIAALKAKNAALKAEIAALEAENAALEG

DKIAALKAKNAALEAEIAALEAENAALKG [4H2948-AA]
interaction score (4H2948-AA): -0.0114
interaction score (4H2991-AA): -0.169
interaction score (4H3029-AA): -1.4
interaction score (4H3066-AA): -1.57
interaction score (4H3102-AA): 0.56
interaction score (4H3121-AA): -1.15
interaction score (4H3417-AA): 0.478
interaction score (4H3446-AA): -0.524
interaction score (4H3591-AA): -1.3
interaction score (4H3628-AA): -0.855
interaction score (4H3666-AA): -1.69
interaction score (4H3709-AA): -1.17
interaction score (4H391-AA): -1.39
interaction score (4H3920-AA): -1.35
interaction score (4H3939-AA): -1.77
interaction score (4H428-AA): 1.95
interaction score (4H478-AA): -1.62
interaction score (4H497-AA): -1.54
interaction score (4H656-AA): 0.924
interaction score (4H675-AA): -0.414
interaction score (4H971-AA): -0.608

DKNAQLKQEIAELEQKNAELEWKIAQLKQ [4H3638-bA]
interaction score (4H3638-bA): 0.115
interaction score (4H3817-bA): -0.0786
interaction score (4H3974-bA): 0.0825
interaction score (4H570-bA): -0.717
interaction score (4H584-bA): -1.67
interaction score (4H619-bA): -0.0681
interaction score (4H850-bA): 0.728
interaction score (4H883-bN): -2.2
interaction score (4H906-bA): -1.97
interaction score (4H918-bH): 0.343

DKNAQLKQKIAELEQEIAELEWENAQLEQ [4H3843-bA]
interaction score (4H3843-bA): -0.878
interaction score (4H4001-bA): -0.268
interaction score (4H462-bA): -0.841
interaction score (4H568-bA): -1.79
interaction score (4H607-bA): -0.651
interaction score (4H687-bA): -0.85
interaction score (4H72-bA): 0.286
interaction score (4H797-bA): -0.879
interaction score (4H883-bA): -1.14
interaction score (4H918-bA): -1.1
interaction score (4H953-bA): -1.38
interaction score (4H967-bA): -1.25

DKNAQLKQENAELKQEIAELEWKIAQLKQ [4H3782-bA]
interaction score (4H3782-bA): 1.29
interaction score (4H3843-bA): 1.18
interaction score (4H3855-bA): 0.312
interaction score (4H3855-bH): 0.603
interaction score (4H4001-bA): 0.27
interaction score (4H454-bA): 1.64
interaction score (4H462-bA): 0.962
interaction score (4H462-bN): 1.22
interaction score (4H568-bA): -1.41
interaction score (4H607-bA): -0.58
interaction score (4H687-bA): 0.572
interaction score (4H687-bN): 0.761
interaction score (4H717-bA): -0.182
interaction score (4H72-bA): -0.987
interaction score (4H754-bA): -0.898
interaction score (4H797-bA): 0.173
interaction score (4H883-bA): 0.21
interaction score (4H908-bA): -1.42
interaction score (4H918-bA): -1.34
interaction score (4H953-bA): -1.07
interaction score (4H967-bA): 0.0169

DEIAALKAKIAALKAKNAALEAENAALEG [4H883-AA]
interaction score (4H883-AA): -1.73
interaction score (4H918-AA): -1.46
interaction score (4H953-AA): -2.05
interaction score (4H967-AA): -2.15

DEIAALEAKIAALKAKNAALEAKNAALKG [4H376-AA]
interaction score (4H376-AA): -1.28
interaction score (4H406-AA): -0.774
interaction score (4H688-AA): -1.96
interaction score (4H963-AA): -1.33
